The text below walks through data of paper doi:10.1101/2025.06.03.657256 (bioRxiv, 2025).

The series “thioflavin T” concerns the molecule itself. In words: thioflavin T.
Series [1] concerns the molecule itself. Nature of the series: negative-stain EM of fibrils.

B1: PLIN4-4mer[326:] (domain or fragment, human, UniProt Q96Q06 326-457, looked up)
chain: SKTVLTGTKDTVCSGVTGAMNVAKGTIQTGVDTTKTVLTGTKNTVCSGVTGAVNLAKEAIQGGLDTTKSMVMGTKDTMSTGLTGAANVAKGAMQTGLNTTQNIATGTKDTVCSGVTGAMNLARGTIQTGVDT
With B1, the binding result in the series “thioflavin T” is recorded as “binds”.

B2: PLIN4-4mer[689:] (domain or fragment, human, UniProt Q96Q06 689-820, looked up)
chain: AKTVLTGTKDTVTTGLMGAVNVAKGTVQTSVDTTKTVLTGTKDTVCSGVTGAANVAKGAIQGGLDTTKSVLTGTKDAVSTGLTGAVKLAKGTVQTGMDTTKTVLTGTKDAVCSGVTGAANVAKGAVQMGVDT
Turning to B2, in the series “thioflavin T”, the binding result was “binds”. Still for that read-out and setting: under SKTVLTGTKDTVCSGVTGAMNVAKGTIQTGVDT (peptide, UniProt Q96Q06 260-292, looked up) [1mer[260:]] stands “binds”.

B3: PLIN4-4mer[557:] (domain or fragment, human, UniProt Q96Q06 557-688, looked up)
chain: TKSVVIGTKDTMSTGLTGAANVAKGAVQTGVDTAKTVLTGTKDTVTTGLVGAVNVAKGTVQTGMDTTKTVLTGTKDTIYSGVTSAVNVAKGAVQTGLKTTQNIATGTKNTFGSGVTSAVNVAKGAAQTGVDT
Turning to B3, the binding result in the series “thioflavin T” was “binds”.

B4: PLIN4-20mer (domain or fragment, human, UniProt Q96Q06 260-919, looked up)
chain: SKTVLTGTKDTVCSGVTGAMNVAKGTIQTGVDTSKTVLTGTKDTVCSGVTGAMNVAKGTIQTGVDTSKTVLTGTKDTVCSGVTGAMNVAKGTIQTGVDTTKTVLTGTKNTVCSGVTGAVNLAKEAIQGGLDTTKSMVMGTKDTMSTGLTGAANVAKGAMQTGLNTTQNIATGTKDTVCSGVTGAMNLARGTIQTGVDTTKIVLTGTKDTVCSGVTGAANVAKGAVQGGLDTTKSVLTGTKDAVSTGLTGAVNVAKGTVQTGVDTTKTVLTGTKDTVCSGVTSAVNVAKGAVQGGLDTTKSVVIGTKDTMSTGLTGAANVAKGAVQTGVDTAKTVLTGTKDTVTTGLVGAVNVAKGTVQTGMDTTKTVLTGTKDTIYSGVTSAVNVAKGAVQTGLKTTQNIATGTKNTFGSGVTSAVNVAKGAAQTGVDTAKTVLTGTKDTVTTGLMGAVNVAKGTVQTSVDTTKTVLTGTKDTVCSGVTGAANVAKGAIQGGLDTTKSVLTGTKDAVSTGLTGAVKLAKGTVQTGMDTTKTVLTGTKDAVCSGVTGAANVAKGAVQMGVDTAKTVLTGTKDTVCSGVTGAANVAKGAVQTGLKTTQNIATGTKNTLGSGVTGAAKVAKGAVQGGLDTTKSVLTGTKDAVSTGLTGAVNLAKGTVQTGVDT
Take B4: in series [1], the binding result is “binds”.

B5: 4x1mer[260:] released from MBP-4x1mer[260:] by TEV protease (domain or fragment, human, UniProt Q96Q06 260-292, looked up)
chain: SKTVLTGTKDTVCSGVTGAMNVAKGTIQTGVDTSKTVLTGTKDTVCSGVTGAMNVAKGTIQTGVDTSKTVLTGTKDTVCSGVTGAMNVAKGTIQTGVDTSKTVLTGTKDTVCSGVTGAMNVAKGTIQTGVDT
As for B5, the binding result in “thioflavin T” is recorded as “binds”.
